Values of other authors in patent US9394339B2, “Stabilized formulations of peptides and proteins protecting against non-enzymatic degradation” (Lyotropic Therapeutics, Inc., priority 2007, dated 2016).
Where two headings read alike, the source gives them in different places.

Settings: for T1/2 (half-life, deamidation): buffer
[1] = aqueous solution, pH 7.4, 37° C., Tris-HCl buffer

| Molecule | T1/10 (time to 10% degradation by deamidation) [1] | T1/2 (half-life, deamidation) (pH 7.4) | T1/10 (time to 10% degradation by deamidation) (pH 7.4) |
| --- | --- | --- | --- |
| Acetylcholinesterase (1F8U): human protein (protein, UniProt P22303 32-614, looked up) Acetylcholinesterase: EGREDAELLVTVRGGRLRGIRLKTPGGPVSAFLGIPFAEPPMGPRRFLPPEPKQPWSGVVDATTFQSVCYQYVDTLYPGFEGTEMWNPNRELSEDCLYLNVWTPYPRPTSPTPVLVWIYGGGFYSGASSLDVYDGRFLVQAERTVLVSMNYRVGAFGFLALPGSREAPGNVGLLDQRLALQWVQENVAAFGGDPTSVTLFGESAGAASVGMHLLSPPSRGLFHRAVLQSGAPNGPWATVGMGEARRRATQLAHLVGCPPGGTGGNDTELVACLRTRPAQVLVNHEWHVLPQESVFRFSFVPVVDGDFLSDTPEALINAGDFHGLQVLVGVVKDEGSYFLVYGAPGFSKDNESLISRAEFLAGVRVGVPQVSDLAAEAVVLHYTDWLHPEDPARLREALSDVVGDHNVVCPVAQLAGRLAAQGARVYAYVFEHRASTLSWPLWMGVPHGYEIEFIFGIPLDPSRNYTAEEKIFAQRLMRYWANFARTGDPNEPRDPKAPQWPPYTAGAQQYVSLDLRPLEVRRGLRAQACAFWNRFLPKLLSATDTLDEAERQWKAEFHRWSSYMVHWKNQFDHYSKQDRCSDL | 3.5 days | – | – |
| Fructose bisphosphate aldolase (4ALD): human protein (protein, UniProt P04075 2-364, looked up) Fructose-bisphosphate …: PYQYPALTPEQKKELSDIAHRIVAPGKGILAADESTGSIAKRLQSIGTENTEENRRFYRQLLLTADDRVNPCIGGVILFHETLYQKADDGRPFPQVIKSKGGVVGIKVDKGVVPLAGTNGETTTQGLDGLSERCAQYKKDGADFAKWRCVLKIGEHTPSALAIMENANVLARYASICQQNGIVPIVEPEILPDGDHDLKRCQYVTEKVLAAVYKALSDHHIYLEGTLLKPNMVTPGHACTQKFSHEEIAMATVTALRRTVPPAVTGITFLSGGQSEEEASINLNAINKCPLLKPWALTFSYGRALQASALKAWGGKKENLKAAQEEYVKRALANSLACQGKYTPSGQAGAAASESLFVSNHAY | – | 7.6 days | 1.2 days |
| Interleukin-16 (1I16): human protein (protein, UniProt Q14005 1212-1332, looked up) Interleukin-16: SAASASAASDVSVESTAEATVCTVTLEKMSAGLGFSLEGGKGSLHGDKPLTINRIFKGAASEQSETVQPGDEILQLGGTAMQGLTRFEAWNIIKALPDGPVTIVIRRKSLQSKETTAAGDS | 2.6 days | – | – |
| Bone morphogenetic protein 7 (1BMP): human protein (protein, UniProt P18075 293-431, looked up) Bone morphogenetic protein 7: STGSKQRSQNRSKTPKNQEALRMANVAENSSSDQRQACKKHELYVSFRDLGWQDWIIAPEGYAAYYCEGECAFPLNSYMNATNHAIVQTLVHFINPETVPKPCCAPTQLNAISVLYFDDSSNVILKKYRNMVVRACGCH | 3.2 days | – | – |
| Karyopherin 2 (1QBK): human protein (protein, UniProt Q92973 1-898, looked up) Transportin-1: MVWDRQTKMEYEWKPDEQGLQQILQLLKESQSPDTTIQRTVQQKLEQLNQYPDFNNYLIFVLTKLKSEDEPTRSLSGLILKNNVKAHFQNFPNGVTDFIKSECLNNIGDSSPLIRATVGILITTIASKGELQNWPDLLPKLCSLLDSEDYNTCEGAFGALQKICEDSAEILDSDVLDRPLNIMIPKFLQFFKHSSPKIRSHAVACVNQFIISRTQALMLHIDSFIENLFALAGDEEPEVRKNVCRALVMLLEVRMDRLLPHMHNIVEYMLQRTQDQDENVALEACEFWLTLAEQPICKDVLVRHLPKLIPVLVNGMKYSDIDIILLKGDVEEDETIPDSEQDIRPRFHRSRTVAQQHDEDGIEEEDDDDDEIDDDDTISDWNLRKCSAAALDVLANVYRDELLPHILPLLKELLFHHEWVVKESGILVLGAIAEGCMQGMIPYLPELIPHLIQCLSDKKALVRSITCWTLSRYAHWVVSQPPDTYLKPLMTELLKRILDSNKRVQEAACSAFATLEEEACTELVPYLAYILDTLVFAFSKYQHKNLLILYDAIGTLADSVGHHLNKPEYIQMLMPPLIQKWNMLKDEDKDLFPLLECLSSVATALQSGFLPYCEPVYQRCVNLVQKTLAQAMLNNAQPDQYEAPDKDFMIVALDLLSGLAEGLGGNIEQLVARSNILTLMYQCMQDKMPEVRQSSFALLGDLTKACFQHVKPCIADFMPILGTNLNPEFISVCNNATWAIGEISIQMGIEMQPYIPMVLHQLVEIINRPNTPKTLLENTAITIGRLGYVCPQEVAPMLQQFIRPWCTSLRNIRDNEEKDSAFRGICTMISVNPSGVIQDFIFFCDAVASWINPKDDLRDMFCKILHGFKNQVGDENWRRFSDQFPLPLKERLAAFYGV | 0.81 days | – | – |
| Myeloperoxidase (1MHL): human protein (protein, UniProt P05164 165-745, looked up) Myeloperoxidase: VTCPEQDKYRTITGMCNNRRSPTLGASNRAFVRWLPAEYEDGFSLPYGWTPGVKRNGFPVALARAVSNEIVRFPTDQLTPDQERSLMFMQWGQLLDHDLDFTPEPAARASFVTGVNCETSCVQQPPCFPLKIPPNDPRIKNQADCIPFFRSCPACPGSNITIRNQINALTSFVDASMVYGSEEPLARNLRNMSNQLGLLAVNQRFQDNGRALLPFDNLHDDPCLLTNRSARIPCFLAGDTRSSEMPELTSMHTLLLREHNRLATELKSLNPRWDGERLYQEARKIVGAMVQIITYRDYLPLVLGPTAMRKYLPTYRSYNDSVDPRIANVFTNAFRYGHTLIQPFMFRLDNRYQPMEPNPRVPLSRVFFASWRVVLEGGIDPILRGLMATPAKLNRQNQIAVDEIRERLFEQVMRIGLDLPALNMQRSRDHGLPGYNAWRRFCGLPQPETVGQLGTVLRNLKLARKLMEQYGTPNNIDIWMGGVSEPLKRKGRVGPLLACIIGTQFRKLRDGDRFWWENEGVFSMQQRQALAQISLPRIICDNTGITTVSKNNIFMSNSYPRDFVNCSTLPALNLASWREAS | 2.4 days | – | – |
| Inositol monophosphatase (1IMB): human protein (protein, UniProt P29218 1-277, looked up) Inositol monophosphatase 1: MADPWQECMDYAVTLARQAGEVVCEAIKNEMNVMLKSSPVDLVTATDQKVEKMLISSIKEKYPSHSFIGEESVAAGEKSILTDNPTWIIDPIDGTTNFVHRFPFVAVSIGFAVNKKIEFGVVYSCVEGKMYTARKGKGAFCNGQKLQVSQQEDITKSLLVTELGSSRTPETVRMVLSNMEKLFCIPVHGIRSVGTAAVNMCLVATGGADAYYEMGIHCWDVAGAGIIVTEAGGVLMDVTGGPFDLMSRRVIAANNRILAERIAKEIQVIPLQRDDED | – | 15 days | 2.3 days |
| Pepsinogen (1HTR): human protein (protein, UniProt P20142 17-388, looked up, pro-form) pro-form: AVVKVPLKKFKSIRETMKEKGLLGEFLRTHKYDPAWKYRFGDLSVTYEPMAYMDAAYFGEISIGTPPQNFLVLFDTGSSNLWVPSVYCQSQACTSHSRFNPSESSTYSTNGQTFSLQYGSGSLTGFFGYDTLTVQSIQVPNQEFGLSENEPGTNFVYAQFDGIMGLAYPALSVDEATTAMQGMVQEGALTSPVFSVYLSNQQGSSGGAVVFGGVDSSLYTGQIYWAPVTQELYWQIGIEEFLIGGQASGWCSEGCQAIVDTGTSLLTVPQQYMSALLQATGAQEDEYGQFLVNCNSIQNLPSLTFIINGVEFPLPPSSYILSNNGYCTVGVEPTYLSSQNGQPLWILGDVFLRSYYSVYDLGNNRVGFATAA | 3.0 days | – | – |
